Columns and labels:
[1] = system: diabetic Sprague-Dawley rats; conditions: diabetic (streptozotocin) Sprague-Dawley rats; cited from earlier work
insulin receptor (IR) = insulin receptor (IR) (Homo sapiens, UniProt P06213); conditions: cited from earlier work
[2] = target: T1, FLAG epitope-tagged holoreceptor of human type 1 insulin-like growth factor receptor (human, UniProt P08069 31-1367, limits assumed); assay: ratio of dissociation constants from competitive displacement of 125I-IGF-I on plate-captured FLAG-tagged hIGFR; relative to insulin lispro
T1 construct: mature; Holoreceptor captured on 96 well plates coated with anti-FLAG monoclonal antibody; The natural receptor is processed from one precursor into alpha and beta chains; also called hIGFR; IGF-1R
Description: Cross-reactivity of the single-chain insulin analogues with IGF-1R was studied using a FLAG epitope-tagged holoreceptor to human type 1 insulin-like growth factor receptor (hIGFR) bound to 96 well plates coated with anti-FLAG monoclonal antibody. […] This is used as a marker for mitogenic potential, where less IGF-R affinity is interpreted as lower mitogenic potential.

IGF1-R (Rel. Aff.) [2] [%]	Molecule	in vivo potency [1]	receptor-binding affinity relative to KP-insulin (insulin receptor (IR))
	2-F-PheB24-DKP-insulin: derivative of DKP-insulin containing ortho-monofluoro-phenylalanine at position B24	potency and duration of signaling are enhanced	ca. 35(±5) %
11	single-chain insulin EA8, EA14, QA17, PE, EAGPRR (ligand, Single-chain insulin analogue (B domain, 6-residue C domain, A domain)) FVNQHLCGSHLVEALYLVCGERGFFYTPETEAGPRRGIVEQCCESICSLEQLQNYCN		
16	single-chain insulin HA8, EA14, FB17, PE, EEGPRR (ligand) FVNQHLCGSHLVEALYFVCGERGFFYTPETEEGPRRGIVEQCCHSICSLEQLENYCN		
2	single-chain insulin HA8, EA14, NB17, PE, EEGPRR (ligand) FVNQHLCGSHLVEALYNVCGERGFFYTPETEEGPRRGIVEQCCHSICSLEQLENYCN		
18	single-chain insulin HA8, EA14, QA17, PE, EAGPRR (ligand) FVNQHLCGSHLVEALYLVCGERGFFYTPETEAGPRRGIVEQCCHSICSLEQLQNYCN		
5	single-chain insulin EA8, EA14, RA17, EP, EAGPRR (ligand) FVNQHLCGSHLVEALYLVCGERGFFYTEPTEAGPRRGIVEQCCESICSLEQLRNYCN		
25	single-chain insulin EA8, EA14, RA17, PE, EAGPRR (ligand) FVNQHLCGSHLVEALYLVCGERGFFYTPETEAGPRRGIVEQCCESICSLEQLRNYCN		

From patent publication US20210371489A1, “SITE 2 SINGLE-CHAIN INSULIN ANALOGUES” (Case Western Reserve University, priority 2018, published 2021)
